Measurements published in publication PMC9239988 (Nature Communications, 2022).

B1: tick-borne encephalitis virus (TBEV) soluble envelope protein E (sE) (domain or fragment)
chain: SRCTHLENRDFVTGTQGTTRVTLVLELGGCVTITAEGKPSMDVWLDAIYQENPAKTREYCLHAKLSDTKVAARCPTMGPATLAEEHQGGTVCKRDQSDRGWGNHCGLFGKGSIVACVKAACEAKKKATGHVYDANKIVYTVKVEPHTGDYVAANETHSGRKTASFTISSEKTILTMGEYGDVSLLCRVASGVDLAQTVILELDKTVEHLPTAWQVHRDWFNDLALPWKHEGAQNWNNAERLVEFGAPHAVKMDVYNLGDQTGVLLKALAGVPVAHIEGTKYHLKSGHVTCEVGLEKLKMKGLTYTMCDKTKFTWKRAPTDSGHDTVVMEVTFSGTKPCRIPVRAVAHGSPDVNVAMLITPNPTIENNGGGFIEMQLPPGDNIIYVGELSHQWFQKGSSIG

How the values were obtained:
[1] = biological target: tick-borne encephalitis virus (TBEV) pr, the pr part of prM (aa 1-88) (tick-borne encephalitis virus strain Neudoerfl); experiment: SPR; […] ([…] to 7.8 nM), […], pH 5.5; 1:1 model; […]
SEC-MALS = biological target: the molecule itself; experiment: SEC-MALS

Row | Molecule | Kd [1] [µM] | stoichiometry N (SEC-MALS)
1 | tick-borne encephalitis virus (TBEV) soluble envelope protein E (sE) (from UniProt P14336 281-680) (domain or fragment) | 0.066 to 10 | –
2 | B1 | – | 2
